*1 amine or outer side, *2 acyl side, *3 side chain or, on linkers, in order; H or OH if unused. Where no end group is shown, it is not given here. Side-chain parts run from the residue outwards. [ ]: non-standard residue; d: D form. The star is where a group is joined. Butanoyl(4-(4-tBuPh)) = CC(C)(C)c1ccc(CCCC(=O)*)cc1; γGlu = O=C(O)[C@H](CCC(=O)[*:2])N[*:1]; C14 diacid = O=C(O)CCCCCCCCCCCCC(=O)*; αMeY = C[C@](N)(Cc1ccc(O)cc1)C(=O)O; αMeF = C[C@](N)(Cc1ccccc1)C(=O)O; αMeL = CC(C)C[C@](C)(N)C(=O)O; Orn = NCCC[C@H](N)C(=O)O; AEEA = NCCOCCOCC(=O)O; Aib = CC(C)(N)C(=O)O
T1: human glucose-dependent insulinotropic polypeptide (GIP) receptor (human, UniProt P48546 22-466)
T1 sequence (looked up): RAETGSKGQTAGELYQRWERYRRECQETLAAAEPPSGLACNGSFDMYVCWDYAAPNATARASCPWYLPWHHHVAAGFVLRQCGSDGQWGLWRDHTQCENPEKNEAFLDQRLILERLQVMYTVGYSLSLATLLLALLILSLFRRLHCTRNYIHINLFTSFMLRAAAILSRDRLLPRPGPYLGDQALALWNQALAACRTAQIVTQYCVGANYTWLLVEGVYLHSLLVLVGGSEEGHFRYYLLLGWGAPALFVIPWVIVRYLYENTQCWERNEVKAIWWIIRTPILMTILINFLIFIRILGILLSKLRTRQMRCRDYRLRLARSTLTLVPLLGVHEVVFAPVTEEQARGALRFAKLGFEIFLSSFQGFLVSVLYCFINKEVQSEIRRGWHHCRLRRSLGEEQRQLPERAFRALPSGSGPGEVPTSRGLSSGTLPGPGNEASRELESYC

B1: Example 178 (peptide)
peptide: Y[Aib]EGT[αMeF]TSDV[Aib]I[αMeL]LD[Orn]K([AEEA-AEEA-γGlu-Butanoyl(4-(4-tBuPh))])AQ[Aib]EFI[dE][αMeY]LIEGGK([AEEA-AEEA-γGlu-Butanoyl(4-(4-tBuPh))])SSGAPPPS-NH2
modifications: N-terminus assumed
SMILES: CC[C@H](C)[C@H](NC(=O)[C@H](CC(C)C)NC(=O)[C@](C)(Cc1ccc(O)cc1)NC(=O)[C@@H](CCC(=O)O)NC(=O)[C@@H](NC(=O)[C@H](Cc1ccccc1)NC(=O)[C@H](CCC(=O)O)NC(=O)C(C)(C)NC(=O)[C@H](CCC(N)=O)NC(=O)[C@H](C)NC(=O)[C@H](CCCCNC(=O)COCCOCCNC(=O)COCCOCCNC(=O)CC[C@H](NC(=O)CCCc1ccc(C(C)(C)C)cc1)C(=O)O)NC(=O)[C@H](CCCN)NC(=O)[C@H](CC(=O)O)NC(=O)[C@H](CC(C)C)NC(=O)[C@](C)(CC(C)C)NC(=O)[C@@H](NC(=O)C(C)(C)NC(=O)[C@@H](NC(=O)[C@H](CC(=O)O)NC(=O)[C@H](CO)NC(=O)[C@@H](NC(=O)[C@](C)(Cc1ccccc1)NC(=O)[C@@H](NC(=O)CNC(=O)[C@H](CCC(=O)O)NC(=O)C(C)(C)NC(=O)[C@@H](N)Cc1ccc(O)cc1)[C@@H](C)O)[C@@H](C)O)C(C)C)[C@@H](C)CC)[C@@H](C)CC)C(=O)N[C@@H](CCC(=O)O)C(=O)NCC(=O)NCC(=O)N[C@@H](CCCCNC(=O)COCCOCCNC(=O)COCCOCCNC(=O)CC[C@H](NC(=O)CCCc1ccc(C(C)(C)C)cc1)C(=O)O)C(=O)N[C@@H](CO)C(=O)N[C@@H](CO)C(=O)NCC(=O)N[C@@H](C)C(=O)N1CCC[C@H]1C(=O)N1CCC[C@H]1C(=O)N1CCC[C@H]1C(=O)N[C@@H](CO)C(N)=O
B2: Example 180 (peptide)
peptide: Y[Aib]EGT[αMeF]TSDV[Aib]I[αMeL]LD[Orn]K([AEEA-AEEA-γGlu-C14 diacid])AQ[Aib]EFI[dE][αMeY]LIEGGK([AEEA-AEEA-γGlu-C14 diacid])SSGAPPPS-NH2
modifications: N-terminus assumed
SMILES: CC[C@H](C)[C@H](NC(=O)[C@H](CC(C)C)NC(=O)[C@](C)(Cc1ccc(O)cc1)NC(=O)[C@@H](CCC(=O)O)NC(=O)[C@@H](NC(=O)[C@H](Cc1ccccc1)NC(=O)[C@H](CCC(=O)O)NC(=O)C(C)(C)NC(=O)[C@H](CCC(N)=O)NC(=O)[C@H](C)NC(=O)[C@H](CCCCNC(=O)COCCOCCNC(=O)COCCOCCNC(=O)CC[C@H](NC(=O)CCCCCCCCCCCCC(=O)O)C(=O)O)NC(=O)[C@H](CCCN)NC(=O)[C@H](CC(=O)O)NC(=O)[C@H](CC(C)C)NC(=O)[C@](C)(CC(C)C)NC(=O)[C@@H](NC(=O)C(C)(C)NC(=O)[C@@H](NC(=O)[C@H](CC(=O)O)NC(=O)[C@H](CO)NC(=O)[C@@H](NC(=O)[C@](C)(Cc1ccccc1)NC(=O)[C@@H](NC(=O)CNC(=O)[C@H](CCC(=O)O)NC(=O)C(C)(C)NC(=O)[C@@H](N)Cc1ccc(O)cc1)[C@@H](C)O)[C@@H](C)O)C(C)C)[C@@H](C)CC)[C@@H](C)CC)C(=O)N[C@@H](CCC(=O)O)C(=O)NCC(=O)NCC(=O)N[C@@H](CCCCNC(=O)COCCOCCNC(=O)COCCOCCNC(=O)CC[C@H](NC(=O)CCCCCCCCCCCCC(=O)O)C(=O)O)C(=O)N[C@@H](CO)C(=O)N[C@@H](CO)C(=O)NCC(=O)N[C@@H](C)C(=O)N1CCC[C@H]1C(=O)N1CCC[C@H]1C(=O)N1CCC[C@H]1C(=O)N[C@@H](CO)C(N)=O
B3: Y-Aib-EGT-αMeF(2F)-TSD-4Pal-SI-αMeL-LD-Orn-K((2-[2-(2-Amino-ethoxy)-ethoxy]-acetyl)2-(γ-Glu)-CO-(CH2)12-CO2H)AQ-Aib-EFI-(D-Glu)-αMeY-LIEGGP S SGAPPP … (peptide)
peptide: YXEGTXTSDXSIXLDXKAQXEFIXXLIEGGPSSGAPPPSK
modifications: Aib2, αMeF(2F)6, 4Pal10, αMeL13, Orn16, Aib20, D-Glu24, αMeY25; acylated K17, K40 (groups as in name); C-terminal amide
B4: Y-Aib-EGT-αMeF(2F)-TSD-4Pal-SI-αMeL-LD-Orn-K((2-[2-(2-Amino-ethoxy)-ethoxy]-acetyl)2-(γ-Glu)-CO-(CH2)14-CH3)AQ-Aib-EFI-(D-Glu)-αMeY-LIEGGPSSGAPPPSK((2-[2-(2-Ami … (peptide)
peptide: YXEGTXTSDXSIXLDXKAQXEFIXXLIEGGPSSGAPPPSK
modifications: Aib2, αMeF(2F)6, 4Pal10, αMeL13, Orn16, Aib20, D-Glu24, αMeY25; acylated K17, K40 (groups as in name); C-terminal amide
B5: Y-Aib-EGT-αMeF(2F)-TSD-4Pal-SI-αMeL-LD-Orn-K((2-[2-(2-Amino-ethoxy)-ethoxy]-acetyl)2-(γ-Glu)-CO-(CH2)12-CO2H)AQ-Aib-EFI-(D-Glu)-αMeY-LIEGGK((2-[2-(2-Amino-ethox … (peptide)
peptide: YXEGTXTSDXSIXLDXKAQXEFIXXLIEGGKSSGAPPPS
modifications: Aib2, αMeF(2F)6, 4Pal10, αMeL13, Orn16, Aib20, D-Glu24, αMeY25; acylated K17, K31 (groups as in name); C-terminal amide
B6: Y-Aib-EGT-αMeF(2F)-TSD-4Pal-SI-αMeL-LD-Orn-K((εK)-(2-[2-(2-Amino-ethoxy)-ethoxy]-acetyl)2-(γ-Glu)-CO-(CH2)12-CO2H)AQ-Aib-EFI-(D-Glu)-αMeY-LIEGGK((εK)-(2-[2-(2-A … (peptide)
peptide: YXEGTXTSDXSIXLDXKAQXEFIXXLIEGGKSSGAPPPS
modifications: Aib2, αMeF(2F)6, 4Pal10, αMeL13, Orn16, Aib20, D-Glu24, αMeY25; acylated K17, K31 (groups as in name); C-terminal amide
B7: Y-Aib-EGT-αMeF(2F)-TSD-4Pal-SI-αMeL-LD-Orn-K((εK)-(γ-Glu)-CO-(CH2)12-CO2H)AQ-Aib-EFI-(D-Glu)-αMeY-LIEGGK((εK)-(γ-Glu)-CO-(CH2)12-CO2H)SSGAPPPS-NH2 (peptide)
peptide: YXEGTXTSDXSIXLDXKAQXEFIXXLIEGGKSSGAPPPS
modifications: Aib2, αMeF(2F)6, 4Pal10, αMeL13, Orn16, Aib20, D-Glu24, αMeY25; acylated K17, K31 (groups as in name); C-terminal amide
B8: Y-Aib-EGT-αMeF(2F)-TSD-4Pal-SI-αMeL-LD-Orn-K((2-[2-(2-Amino-ethoxy)-ethoxy]-acetyl)2-CO-(CH2)12-CO2H)AQ-Aib-EFI-(D-Glu)-αMeY-LIEGGK((2-[2-(2-Amino-ethoxy)-ethox … (peptide)
peptide: YXEGTXTSDXSIXLDXKAQXEFIXXLIEGGKSSGAPPPS
modifications: Aib2, αMeF(2F)6, 4Pal10, αMeL13, Orn16, Aib20, D-Glu24, αMeY25; acylated K17, K31 (groups as in name); C-terminal amide

biological target: human glucagon-like peptide-1 (GLP-1) receptor (human, UniProt P43220 24-463); assay: cell-based or functional assay

Binder | cAMP EC50 [nM]
B1 | 0.22
B2 | 0.26

biological target: T1, human glucose-dependent insulinotropic …; assay: cell-based or functional assay

Binder | cAMP EC50 [nM] | cAMP Emax [%]
B1 | 0.11 | 105
B2 | 0.224 | 86.8

biological target: human glucagon receptor (human, UniProt P47871 26-477); assay: cell-based or functional assay

Binder | cAMP EC50 (1.0% HSA) [nM]
B3 | > 9950
B4 | > 9950
B5 | > 9950
B6 | > 9950
B7 | > 9950
B8 | > 9950
